# Measured values published in the Human Domainome abundance scans (Beltran et al. 2025).
# ± gives the uncertainty stated by the source.
# B1: Homeobox protein cut-like 1, residues 941 to 1008; numbered along this chain, P39880 (parent)
# chain: QEVDTIELTRQVKEKLAKNGICQRIFGEKVLGLSQGSVSDMLSRPKPWSKLTQKGREPFIRMQLWLNG
# Variants of: B1
# Assay: abundance fitness (aPCA) (normalised: wild type 0, dead -1); higher = more abundant; growth selection in yeast, the domain comes from the species named
# Details: Homo sapiens
row,Variant,abundance fitness
1,G55D,0.084 ± 0.074
2,G55H,-0.132 ± 0.12
3,G68I,-0.662 ± 0.16
4,G68K,-0.091 ± 0.11
5,G68R,-0.14 ± 0.066
6,G68S,-0.229 ± 0.072
7,K15R,-0.096 ± 0.063
8,K15T,-0.196 ± 0.081
9,K15L,-0.057 ± 0.063
10,K15F,-0.175 ± 0.11
11,K15Q,-0.119 ± 0.075
12,K15D,-0.586 ± 0.13
13,K15P,-0.052 ± 0.084
14,K15C,-0.119 ± 0.095
15,E2K,-0.074 ± 0.029
16,E2M,-0.09 ± 0.029
17,E2H,-0.317 ± 0.032
18,V38P,-0.364 ± 0.08
19,V38C,-0.096 ± 0.08
20,V38W,0.063 ± 0.073
21,V38S,-0.086 ± 0.059
22,V38I,-0.022 ± 0.12
23,V38N,-0.331 ± 0.088
24,V38M,-0.147 ± 0.084

row,Variant,abundance fitness
1,V38Q,-0.273 ± 0.086
2,Q23K,-0.245 ± 0.093
3,Q23A,-0.161 ± 0.082
4,Q23D,-0.429 ± 0.29
5,Q23M,-0.195 ± 0.096
6,E7S,0.172 ± 0.3
7,F26T,-0.796 ± 0.1
8,F26G,-0.622 ± 0.078
9,F26R,-0.526 ± 0.056
10,F26D,-1.05 ± 0.22
11,F26S,-0.704 ± 0.071
12,F26P,-0.574 ± 0.085
13,T5E,-0.204 ± 0.066
14,T5R,-0.157 ± 0.046
15,T5K,-0.121 ± 0.066
16,T5S,-0.177 ± 0.056
17,Q63P,-0.724 ± 0.091
18,Q63L,-0.424 ± 0.052
19,Q63N,-0.317 ± 0.11
20,Q63S,-0.219 ± 0.055
21,Q63W,-0.032 ± 0.077
22,Q63K,0.017 ± 0.072
23,W48N,-1.46 ± 0.26
24,W48S,-0.817 ± 0.073

row,Variant,abundance fitness
1,W48L,-0.398 ± 0.047
2,G20E,-0.331 ± 0.083
3,I60L,-0.015 ± 0.052
4,I60W,-0.334 ± 0.075
5,I60P,-0.911 ± 0.17
6,I60S,-0.141 ± 0.062
7,I60T,-0.008 ± 0.079
8,I60F,-0.205 ± 0.12
9,K18E,0 ± 0.071
10,K18C,-0.261 ± 0.14
11,K18I,-0.085 ± 0.12
12,K18L,-0.168 ± 0.047
13,K18Y,-0.527 ± 0.15
14,K18H,-0.412 ± 0.14
15,K18V,-0.184 ± 0.05
16,R61C,-0.277 ± 0.1
17,R61S,-0.386 ± 0.065
18,R61P,-0.788 ± 0.096
19,R61G,-0.582 ± 0.089
20,R61Q,-0.131 ± 0.085
21,L51Y,-0.474 ± 0.099
22,L51Q,-0.969 ± 0.12
23,L51S,-0.92 ± 0.078
24,L51P,-1.07 ± 0.14

row,Variant,abundance fitness
1,L51I,-0.113 ± 0.15
2,D4P,-0.265 ± 0.062
3,D4I,-0.503 ± 0.095
4,D4S,-0.261 ± 0.05
5,D4E,-0.093 ± 0.068
6,D4H,-0.346 ± 0.077
7,E28R,-0.026 ± 0.053
8,E28Y,-0.229 ± 0.11
9,E28W,-0.104 ± 0.063
10,E28H,-0.197 ± 0.15
11,E28N,-0.134 ± 0.11
12,E28I,-0.277 ± 0.094
13,R44V,-0.175 ± 0.063
14,R44C,-0.007 ± 0.078
15,R44K,0.098 ± 0.094
16,R44A,0 ± 0.058
17,L8N,0.011 ± 0.092
18,L8E,0.011 ± 0.083
19,L8Q,-0.032 ± 0.075
20,L8R,-0.01 ± 0.055
21,M41T,-0.107 ± 0.066
22,M41K,-0.089 ± 0.072
23,C22Q,-0.256 ± 0.08
24,C22V,-0.196 ± 0.052

row,Variant,abundance fitness
1,C22Y,-0.28 ± 0.094
2,C22A,-0.053 ± 0.056
3,C22W,-0.161 ± 0.071
4,C22H,-0.006 ± 0.11
5,Q53E,-0.139 ± 0.061
6,Q53S,-0.022 ± 0.059
7,Q53R,-0.053 ± 0.051
8,Q53I,-0.119 ± 0.1
9,Q53H,-0.179 ± 0.11
10,Q53F,-0.217 ± 0.086
11,Q53Y,-0.27 ± 0.1
12,S43G,-0.251 ± 0.055
13,S43F,-0.373 ± 0.083
14,S43C,-0.153 ± 0.064
15,S43L,-0.139 ± 0.048
16,S43V,-0.064 ± 0.055
17,S43M,0.079 ± 0.078
18,S43R,-0.125 ± 0.055
19,S43E,0.014 ± 0.077
20,S43I,-0.187 ± 0.11
21,S37W,-0.108 ± 0.069
22,S37D,0.251 ± 0.093
23,S37G,-0.123 ± 0.051
24,S37N,-0.033 ± 0.078

row,Variant,abundance fitness
1,V12K,-0.183 ± 0.086
2,V12C,-0.461 ± 0.35
3,V12P,-0.008 ± 0.065
4,V12Y,-0.175 ± 0.089
5,V12W,-0.226 ± 0.072
6,V12H,-0.142 ± 0.11
7,L16M,0.107 ± 0.071
8,L16I,-0.198 ± 0.13
9,L16D,-0.189 ± 0.12
10,L16S,-0.033 ± 0.055
11,L16G,-0.015 ± 0.076
12,F59W,-0.128 ± 0.084
13,F59Q,-1.13 ± 0.2
14,F59A,-0.813 ± 0.099
15,F59G,-1.17 ± 0.13
16,F59E,-0.431 ± 0.091
17,F59H,-1.18 ± 0.25
18,K46Q,-0.041 ± 0.06
19,K46P,0.112 ± 0.071
20,K46G,-0.315 ± 0.051
21,K46Y,-0.059 ± 0.17
22,K46A,-0.075 ± 0.065
23,G32K,-0.1 ± 0.079
24,G32W,-0.377 ± 0.11

row,Variant,abundance fitness
1,G32R,-0.029 ± 0.062
2,G32L,-0.273 ± 0.054
3,G32T,-0.29 ± 0.071
4,G32N,-0.204 ± 0.087
5,E57P,-0.744 ± 0.083
6,E57H,-0.213 ± 0.12
7,E57I,-0.097 ± 0.099
8,R10L,-0.246 ± 0.049
9,R10P,-0.157 ± 0.075
10,R10W,-0.509 ± 0.067
11,R10A,-0.096 ± 0.063
12,S34D,-0.046 ± 0.1
13,S34Q,-0.125 ± 0.096
14,S34R,0.02 ± 0.055
15,L66A,-0.62 ± 0.089
16,L66T,-0.8 ± 0.075
17,L66Y,-0.762 ± 0.091
18,L66Q,-1.17 ± 0.15
19,Q1L,-0.218 ± 0.055
20,Q1H,-0.673 ± 0.14
21,Q1M,0.09 ± 0.081
22,Q1P,-0.277 ± 0.086
23,Q1N,-0.412 ± 0.11
